From article PMC9942873 (Immunity, 2023) come the findings set out here.

B1: RUPA-154 (antibody, V domains shown)
VH: QVQLVQSGAEVRKPGASVKVSCRTSGYTFTDYYMHWVRQAPGEGLEWMGSINPKSGGTSYAERFQGRVTMTMETSVSTAYLDLSSLRSDDTAVYYCARLLYSRAVYYYGMDVWGQGTTVTVSS
VL: SYELTQPPSVSVAPGKTARITCGGKDLGSKSVHWYQQKPGQAPVLVIYYDNIRPSGIPERFSGSNSGNTATLTISRVEAGDEADYYCQVWDSSSDHYVFGRGAKVTVL
notes: human IgG1; source: recombinant human IgG1, 293T (Protein A purified) or GenScript
B2: RUPA-106 (antibody, V domains shown)
VH: EVELLESGGGLVQPGGSLRISCAASGFIFNTYAMSWVRQAPGKGLEWVSAISGSGRSTYYADSVKGRFTISRDNSNNTLYLQMNSLRAEDTAVYYCAKDTHSNILYYLFDYWGQGTLVTVSS
VL: EIVLTQSPATLSLSPGERGTLSCRASQSVSSSYLGWYQQKPGQAPRLLIYGASSRATGIPDRFSGSGSGTDFTLTISRLEPEDFAVYYCHQYGISPATFGQGTKVEIK
notes: as for B1
B3: RUPA-140 (antibody, V domains shown)
VH: EVQLLESGGGLVQPGGSLRLSCVASGFSFSNFAMNWVRQAPGKGLEWVSAISGSGGSTYYIDSVKGRFSISRDTSKNTLYLQMNSLRAEDTAVYYCAKVGGRSIFGEATDYWGQGSLVTVSS
VL: DIQMTQSPSSLSASVGDRVTITCRASQSINKYLNWYQQKPGRAPKLLIQVASSLQSGVPSRFSGSGSGTDFTLTISSLQPEDFATYYCQQTYTLPLIFGGGTKVEIK
notes: source: recombinant human IgG1, 293T (Protein A purified) or GenScript
B4: RUPA-117 (antibody, V domains shown)
VH: QLQLQESGPGLVKPSETLSLTCTVSGGSISRSPYYWGWIRQPPGKGLEWFGSVYNNGSTYYNPSLKSRVTISVDTSKNQFSLKLSSVTAADTALYYCARHGGSTGMKVVVIAPPDYWGQGTLVTVSS
VL: DIQMTQSPATLSASVGDRVTITCRASQSISIWLAWYQQKPGEAPKLLIYKASSLQSGVPSRFSGSASGTKFSLTISSLQPDDFATFYCQQYHSYPYTFGQGTKLEIK
notes: as for B1
B5: RUPA-89 (antibody, V domains shown)
VH: DVYLLESGGGLVQPGGSLRLSCAASGFTFSNDAMSWVRQAPGKGLEWVSGILASAPRTYYADSVKGRFIISRDNSKNTLYLQMNSLRVEDTAIYYCAKEGILRPFDPWGQGTLVTVSS
VL: QSALTQPASMSGSPGQSITISCTGTSSDVGGFKYVSWYQHHPDKAPKLIIYEVNQRPSGVSNRFSGSKSGNTASLTISGLQAEDEADYYCSSYTSITYHHVFGTGTKVTVL
notes: as for B1
B6: RUPA-100 (antibody, V domains shown)
VH: QVQLVESGGGVVQPGRSLRLSCAASGFSFSHYGMHWVRQAPGKGLEWVAVISYDGNYKYYGDSVKGRFTISRDNFKNTLYLQMNSLRPEDTAVYYCAKGKAHSCVSTSCYTDFWGQGTLVTVPS
VL: SYELTQPPSVSVSPGQTARITCSGDALPKKYAYWYQQKSGQAPVLVIYEDSKRPSGIPERFSGSSSGTMATLTISGAQVEDEGDYYCYSTDSSYNHRGVFGGGTKLTVL
notes: as for B1

recombinant full-length Pfs48/45, sequence (Q8I6T1 28-428): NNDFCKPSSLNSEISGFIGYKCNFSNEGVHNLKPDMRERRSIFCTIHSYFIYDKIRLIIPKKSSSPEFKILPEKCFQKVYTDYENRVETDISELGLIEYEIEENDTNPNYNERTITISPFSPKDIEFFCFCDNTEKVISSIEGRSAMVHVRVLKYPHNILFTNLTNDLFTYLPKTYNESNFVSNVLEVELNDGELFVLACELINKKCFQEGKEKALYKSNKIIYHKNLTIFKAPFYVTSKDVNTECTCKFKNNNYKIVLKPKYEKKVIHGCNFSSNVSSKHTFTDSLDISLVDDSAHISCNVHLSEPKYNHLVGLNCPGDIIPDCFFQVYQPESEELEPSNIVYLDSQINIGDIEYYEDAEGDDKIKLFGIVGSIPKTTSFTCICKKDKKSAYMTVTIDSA
Pfs48/45 D2-3, sequence (Q8I6T1 184-428): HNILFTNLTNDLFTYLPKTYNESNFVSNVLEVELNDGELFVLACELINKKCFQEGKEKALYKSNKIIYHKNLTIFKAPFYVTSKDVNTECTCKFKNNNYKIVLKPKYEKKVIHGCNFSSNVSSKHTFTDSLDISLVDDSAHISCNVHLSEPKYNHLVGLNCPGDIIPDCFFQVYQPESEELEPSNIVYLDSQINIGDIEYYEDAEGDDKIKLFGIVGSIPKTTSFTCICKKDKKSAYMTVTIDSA
Pfs48/45 D3, sequence (Q8I6T1 287-428): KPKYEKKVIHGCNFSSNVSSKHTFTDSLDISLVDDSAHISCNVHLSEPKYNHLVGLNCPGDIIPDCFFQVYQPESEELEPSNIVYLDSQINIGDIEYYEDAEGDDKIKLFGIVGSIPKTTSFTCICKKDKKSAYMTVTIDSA
Pfs48/45 D1-2, sequence (Q8I6T1 28-289): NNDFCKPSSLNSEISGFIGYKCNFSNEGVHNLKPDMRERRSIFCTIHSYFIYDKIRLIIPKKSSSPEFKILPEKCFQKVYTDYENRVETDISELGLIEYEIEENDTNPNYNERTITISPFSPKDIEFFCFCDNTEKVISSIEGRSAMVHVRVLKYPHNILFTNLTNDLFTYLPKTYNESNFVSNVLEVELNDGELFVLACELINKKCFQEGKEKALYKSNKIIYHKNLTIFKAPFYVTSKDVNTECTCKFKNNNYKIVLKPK

One experiment has as its target recombinant full-length Pfs48/45 (Plasmodium falciparum 3D7, UniProt Q8I6T1). Briefly: ELISA. Conditions: both partners purified. (In general: In an ELISA, binding on a coated surface is turned into a signal by an enzyme label.)
In the case of B1, the binding result is “binds”.

Regarding B2, the binding result is on record as “binds”.

With B3, the binding result was “binds”.

Take B4: the binding result is recorded as “binds”.

With B5, the binding result is on record as “binds”.

Consider B6, for which the binding result was “binds”.

Another experiment concerns the target Pfs48/45 D1-2 (Plasmodium falciparum 3D7, UniProt Q8I6T1). Briefly: ELISA. Conditions: both partners purified.
For the molecule B1, the binding result is given as “binds”.

Another experiment has as its target Pfs48/45 D2-3 (Plasmodium falciparum 3D7, UniProt Q8I6T1). Briefly: ELISA. Particulars: both partners purified.
As for B1, the binding result is given as “binds”.

As to B2, the binding result is “binds”.

Take B3: the binding result is given as “binds”.

As to B4, the binding result is on record as “binds”.

As for B5, the binding result is given as “binds”.

For the molecule B6, the binding result is on record as “binds”.

Another experiment addresses Pfs48/45 D3 (Plasmodium falciparum 3D7, UniProt Q8I6T1). The experiment in a line: ELISA. Particulars: both partners purified.
For the molecule B1, the binding result is recorded as “binds”.

For B2, the binding result is “binds”.

With B3, the binding result is “binds”.

For B4, the binding result is on record as “binds”.

Take B5: the binding result was “binds”.

B6: the binding result is reported as “binds”.
